The labels stand for the following.
B1: monoclonal antibody DC8E8 (antibody, mouse IgG1, V domains shown)
VH: QVQLQQSGPELVKPGTSVKMPCKASGYIFTDYVISWVKQRTGQGLEWIGEIFPRSGSTYYNEKFKGKATLTADKSSNTAYMQLSSVTSEDSAVYFCARDYYGTSFAMDYWGQGTSVTVSS
VL: DIVMSQSPSSLAVSAGEKVTMSCKSSQSLLNSRTRKNYLAWYQQKPGQSPKLLIYWASTRESGVPDRFTGSGSGTDFTLTISSVQAEDLAVYYCKQSFYLRTFGGGTKLDIK
notes: Mouse IgG1 with kappa light chain, from hybridoma ATCC PTA-11994; also called mAb DC8E8

Where only a bound is given, the exact number is not on record here.

The target of test [1] is B1. The test can be described thus: competition ELISA; competitor: coated tauΔ(1-150;392-441)/4R. On the technique in general: ELISA stands for enzyme-linked immunosorbent assay.
Test [2] has as its target B1. The test can be described thus: competition ELISA against coated tauΔ(1-150;392-441)/4R.
Test [3] has as its target T1, human full-length tau isoform 2N4R (human, UniProt P10636 1-758).
T1 construct: Recombinant, E. coli; also called tau 2N4R; tau441
Put plainly: SPR (Biacore), DC8E8 captured, tau injected.
Description: (§1) A BIACORE3000 instrument with a CMS sensor chip (Biacore AB, Uppsala) was used for the SPR assays. Amine-coupling reagents (EDC, NHS, ethanolamine pH 8.5), P20 detergent, and 10 mM sodium acetate pH 5.0 were obtained from Biacore AB. These experiments were done at 25° C. in PBS pH 7.4 with 0.005% of P20 (PBS-P) as the running buffer.
(§2) Kinetic rate constants were approximated globally, maximal responses were fitted locally, and the bulk response was set to zero.

Test [4] concerns the target T2, tauΔ(1-150; 392-441)/4R (human, UniProt P10636 468-708).
T2 construct: Also the transgene of SHR72 rats; also called tau 151-391/4R; misdisordered tau
Put plainly: SPR (Biacore), DC8E8 captured, tau injected. A general note: Surface plasmon resonance follows binding to a sensor surface in real time, without labels.
Description: as §1, §2

The target of test [5] is tauΔ283-441 (human, UniProt P10636 1-599). Put plainly: ELISA, coated tau (5 µg/ml), hybridoma supernate.
Description: (§3) Microtiter plates were coated overnight at 37° C. with either recombinant tau proteins or with tau peptides (5 μg/ml in PBS, 50 μl/well). […] Bound monoclonal antibody was detected with sheep anti-mouse Ig HRP-conjugated (DAKO). The reaction was developed with orthophenylenediamine Solution as a peroxidase substrate and stopped with 50 μl of 2 M H₂SO₄. Absorbance was measured at 492 nm using a Multiscan MCC/340 ELISA reader (Labsystems). Readouts with an absorbance value of at least twice the value of the negative controls (PBS) were considered positive.
Test [6] concerns the target tauΔ137-441 (human, UniProt P10636 1-387). The test can be described thus: ELISA, coated tau (5 µg/ml), hybridoma supernate.
Description: as §3
Test [7] deals with T3, tauΔ228-441 (human, UniProt P10636 1-544).
T3 construct: also called C-terminally truncated tau protein
The test can be described thus: ELISA, coated tau (5 µg/ml), hybridoma supernate.
Description: as §3

Test [8] deals with tauΔ222-427 (human, UniProt P10636 1-758). The test can be described thus: ELISA, coated tau (5 µg/ml), hybridoma supernate.
Description: as §3
The target in test [9] is tauΔ300-312 (human, UniProt P10636 1-758). The test can be described thus: ELISA, coated tau (5 µg/ml), hybridoma supernate.
Description: as §3
Test [10] concerns the target tauΔ257-400 (human, UniProt P10636 1-758). The test can be described thus: ELISA, coated tau (5 µg/ml), hybridoma supernate.
Description: as §3
Test [11] deals with tauΔ306-400 (human, UniProt P10636 1-758). Put plainly: ELISA, coated tau (5 µg/ml), hybridoma supernate.
Description: as §3
The target in test [12] is T4, tau peptide 301-330 (human).
T4 construct: Synthetic; Built from 2N4R numbering
T4 peptide: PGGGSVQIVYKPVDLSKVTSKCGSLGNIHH
The test can be described thus: ELISA, coated peptide (5 µg/ml), hybridoma supernate.
Description: as §3

Test [13] has as its target T5, tau peptide 270-300 (human).
T5 construct: Synthetic; Built from 2N4R numbering
T5 peptide: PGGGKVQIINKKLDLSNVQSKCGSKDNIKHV
The description is as above.
Description: as §3

For test [14], the target named is T6, tau peptide 240-270 (human).
T6 construct: Synthetic; Built from 2N4R numbering
T6 peptide: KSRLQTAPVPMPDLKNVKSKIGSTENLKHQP
The test is described as above.
Description: as §3

tauΔ306-400, sequence (P10636 other isoform, or with tags, fused parts or gaps mutant): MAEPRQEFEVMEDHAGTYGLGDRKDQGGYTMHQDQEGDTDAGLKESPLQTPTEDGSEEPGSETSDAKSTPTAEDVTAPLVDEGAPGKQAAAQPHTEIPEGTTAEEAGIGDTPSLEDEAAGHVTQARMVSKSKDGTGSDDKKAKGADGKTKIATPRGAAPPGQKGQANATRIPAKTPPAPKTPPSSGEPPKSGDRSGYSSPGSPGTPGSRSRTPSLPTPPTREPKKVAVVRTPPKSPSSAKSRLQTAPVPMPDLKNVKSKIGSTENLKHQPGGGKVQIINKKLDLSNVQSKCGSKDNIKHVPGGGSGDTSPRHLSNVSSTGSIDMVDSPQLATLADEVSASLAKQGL
tauΔ257-400, sequence (P10636 other isoform, or with tags, fused parts or gaps mutant): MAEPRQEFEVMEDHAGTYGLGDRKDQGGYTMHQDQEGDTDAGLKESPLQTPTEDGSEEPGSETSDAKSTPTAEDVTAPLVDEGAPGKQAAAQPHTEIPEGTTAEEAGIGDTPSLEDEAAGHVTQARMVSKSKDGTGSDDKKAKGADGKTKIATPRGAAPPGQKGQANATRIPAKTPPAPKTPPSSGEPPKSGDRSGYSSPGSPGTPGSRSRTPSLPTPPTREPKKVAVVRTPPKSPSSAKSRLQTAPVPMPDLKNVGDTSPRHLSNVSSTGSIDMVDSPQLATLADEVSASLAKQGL
tauΔ222-427, sequence (P10636 other isoform, or with tags, fused parts or gaps mutant): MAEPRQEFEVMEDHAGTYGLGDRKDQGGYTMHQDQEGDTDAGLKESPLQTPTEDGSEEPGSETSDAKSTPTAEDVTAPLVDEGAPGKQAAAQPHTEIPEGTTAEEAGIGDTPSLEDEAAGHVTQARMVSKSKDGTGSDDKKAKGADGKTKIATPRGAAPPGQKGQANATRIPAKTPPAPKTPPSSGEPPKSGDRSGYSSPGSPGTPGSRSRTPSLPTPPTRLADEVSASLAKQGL
T1 sequence (P10636 other isoform, or with tags, fused parts or gaps limits assumed): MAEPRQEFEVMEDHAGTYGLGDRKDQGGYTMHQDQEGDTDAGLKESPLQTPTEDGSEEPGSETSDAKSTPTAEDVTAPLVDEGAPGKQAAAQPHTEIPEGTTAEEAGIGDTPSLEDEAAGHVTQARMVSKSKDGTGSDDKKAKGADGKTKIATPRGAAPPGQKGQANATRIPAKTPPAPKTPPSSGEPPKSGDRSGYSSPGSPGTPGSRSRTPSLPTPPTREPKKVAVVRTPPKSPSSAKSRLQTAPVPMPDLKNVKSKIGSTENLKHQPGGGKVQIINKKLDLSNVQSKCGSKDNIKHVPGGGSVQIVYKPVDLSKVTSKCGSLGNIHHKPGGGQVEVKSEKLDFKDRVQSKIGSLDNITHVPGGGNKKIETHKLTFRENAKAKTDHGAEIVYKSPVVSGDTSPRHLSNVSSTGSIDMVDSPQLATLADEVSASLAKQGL
tauΔ283-441, sequence (P10636 other isoform, or with tags, fused parts or gaps mutant): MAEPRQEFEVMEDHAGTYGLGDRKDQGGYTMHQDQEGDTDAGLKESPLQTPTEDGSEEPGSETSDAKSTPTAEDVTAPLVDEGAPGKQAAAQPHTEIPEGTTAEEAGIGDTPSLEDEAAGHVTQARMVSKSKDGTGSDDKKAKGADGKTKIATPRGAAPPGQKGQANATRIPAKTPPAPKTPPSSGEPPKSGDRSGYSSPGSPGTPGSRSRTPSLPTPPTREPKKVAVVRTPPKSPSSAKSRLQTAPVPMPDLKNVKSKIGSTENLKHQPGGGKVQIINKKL
tauΔ300-312, sequence (P10636 other isoform, or with tags, fused parts or gaps mutant): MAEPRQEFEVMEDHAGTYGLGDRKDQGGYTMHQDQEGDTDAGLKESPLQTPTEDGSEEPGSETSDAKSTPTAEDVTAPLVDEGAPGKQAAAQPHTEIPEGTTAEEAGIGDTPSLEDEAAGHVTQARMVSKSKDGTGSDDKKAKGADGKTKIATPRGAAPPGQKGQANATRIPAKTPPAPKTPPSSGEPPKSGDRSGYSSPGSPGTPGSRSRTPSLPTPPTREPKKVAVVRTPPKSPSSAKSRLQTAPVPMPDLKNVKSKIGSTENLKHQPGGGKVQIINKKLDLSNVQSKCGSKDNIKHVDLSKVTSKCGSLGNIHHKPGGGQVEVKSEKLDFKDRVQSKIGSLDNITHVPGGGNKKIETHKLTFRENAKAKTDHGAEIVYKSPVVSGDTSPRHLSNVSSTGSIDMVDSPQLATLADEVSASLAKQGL
T2 sequence (P10636 other isoform, or with tags, fused parts or gaps mutant limits assumed): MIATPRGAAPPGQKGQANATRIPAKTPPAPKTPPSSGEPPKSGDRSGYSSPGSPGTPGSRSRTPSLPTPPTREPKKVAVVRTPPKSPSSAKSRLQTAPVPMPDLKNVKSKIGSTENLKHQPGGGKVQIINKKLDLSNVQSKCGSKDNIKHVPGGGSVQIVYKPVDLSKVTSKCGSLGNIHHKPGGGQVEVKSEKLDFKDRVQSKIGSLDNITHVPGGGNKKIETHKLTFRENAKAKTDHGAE
T3 sequence (P10636 other isoform, or with tags, fused parts or gaps mutant): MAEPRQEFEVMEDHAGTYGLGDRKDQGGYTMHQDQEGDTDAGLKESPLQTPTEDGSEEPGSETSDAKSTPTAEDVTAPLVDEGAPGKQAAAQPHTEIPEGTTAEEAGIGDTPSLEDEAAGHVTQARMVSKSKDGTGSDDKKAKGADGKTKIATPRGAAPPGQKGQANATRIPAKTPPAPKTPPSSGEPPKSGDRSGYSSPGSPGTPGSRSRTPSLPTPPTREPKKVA
tauΔ137-441, sequence (P10636 other isoform, or with tags, fused parts or gaps mutant): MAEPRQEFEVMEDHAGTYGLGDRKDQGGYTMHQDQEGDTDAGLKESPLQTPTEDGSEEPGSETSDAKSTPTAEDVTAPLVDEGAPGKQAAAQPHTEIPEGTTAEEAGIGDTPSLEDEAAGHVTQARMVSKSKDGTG

As for HQPGGG [tau peptide HQPGGG], the binding result in [1] was “binds”. Turning to HVPGGG [tau peptide HVPGGG], the binding result in test [1] is “binds”.

Take HKPGGG [tau peptide HKPGGG]: in test [1], the binding result is reported as “binds”. Regarding GWSIHSPGGGSC (Designed peptide) [designer therapeutic epitope 1 GWSIHSPGGGSC], the binding result in [1] is “binds”. Turning to IKHVPGGGS [peptide IKHVPGGGS], the binding result in test [1] is “binds”.

Take DNIKHVPGGGSVQIVYKPV (also called 19-mer) [tau peptide DNIKHVPGGGSVQIVYKPV]: the binding result in test [1] is listed as “binds”. As to ANIKHVPGGGS (Alanine mutant of tau 295-305) [peptide ANIKHVPGGGS], the binding result in test [1] was “binds”. For the molecule DNIKAVPGGGS (Alanine mutant (H299A) of tau 295-305) [peptide DNIKAVPGGGS], in test [2], the binding result is “no binding (tested: 160 µM)”. With DNAKHVPGGGS (Alanine mutant of tau 295-305) [peptide DNAKHVPGGGS], the binding result in test [1] is on record as “binds”. Regarding B1, the “fold lower kOFF of four-repeat tau species” value in test [3] and in [4] was 10 fold in each case. Besides, the binding result in test [5], in test [6], in test [7], in [8], in test [9] and in [10] was “no binding” in each case. In addition, the binding result in test [11], in test [12], in test [13] and in test [14] was “no binding” each time. For the molecule KHVPGGGSV [peptide KHVPGGGSV], the binding result in test [1] is recorded as “binds”. Take KHVPGGG [tau peptide KHVPGGG]: the binding result in test [1] is “binds”. With THVPGGG [tau peptide THVPGGG], in [1], the binding result was “binds”. Consider KHQPGGG [tau peptide KHQPGGG], for which, in test [1], the binding result is reported as “binds”. DNIAHVPGGGS (Alanine mutant of tau 295-305) [peptide DNIAHVPGGGS]: in test [1], the binding result is recorded as “binds”. On to NIKHVPGGGS [peptide NIKHVPGGGS], for which the binding result in test [1] was “binds”.

B2: peptide NIKAVPGGGS (peptide)
peptide: NIKAVPGGGS
notes: Tau-derived peptide with histidine 299 changed to alanine
For the molecule B2, the binding result in test [2] is on record as “no binding (tested: 40 µM)”.

For the molecule TENLKHQPGGGK [tau peptide TENLKHQPGGGK], the binding result in [1] is reported as “binds”. As to ENLKHQPGGGKVQIINKKLDLSNVQSKCGSKDNIKHVPGGGS (also called 42-mer) [tau peptide ENLKHQPGGGKVQIINKKLDLSNVQSKCGSKDNIKHVPGGGS], the binding result in test [1] is recorded as “binds”. With HQPGG [tau peptide HQPGG], the binding result in test [2] is “no binding”. Turning to HVPGG [tau peptide HVPGG], the binding result in test [2] is reported as “no binding”. Consider QPGGG [tau peptide QPGGG], for which, in [2], the binding result is “no binding”. For the molecule VPGGG [tau peptide VPGGG], the binding result in [2] was “no binding”. Consider SVFQHLPGGGSC (Designed peptide) [designer therapeutic epitope 2 SVFQHLPGGGSC], for which the “affinity for DC8E8 relative to tauΔ(1-150; 392-441)4R” value in test [1] was over 10 fold. Take HHKPGGG [tau peptide HHKPGGG]: the binding result in test [1] is reported as “binds”. For DAIKHVPGGGS (Alanine mutant of tau 295-305) [peptide DAIKHVPGGGS], in test [1], the binding result is given as “binds”. Take HVPGGGSVQ [peptide HVPGGGSVQ]: in [1], the binding result is on record as “binds”. Still for that read-out and setting: with DNIKHAPGGGS (Alanine mutant of tau 295-305) [peptide DNIKHAPGGGS] the entry was “binds”.

Values taken from patent US20220010004A1 (published 2022).
